The nature of series [1]: Cytotoxicity, viability of HepG2 cells by Cell Counting Kit-8 (CCK-8). In kind it is cell-based. As to conditions: human, HepG2, 1.5625-50 μM, read-out: survival ratio of cells. Here is the method: The cytotoxicity effect of cyclic peptide-tri-GalNAc were evaluated with the viability of HepG2 cells and analyzed by Cell Counting Kit-8 (CCK-8) (Dojindo Laboratories, Japan). The assay was performed according to manufacturer's protocol. Briefly, HepG2 were seeded in 96-well plates with a density of 6×10^4 cells per well and incubated at 37° C. with 5% CO2. As cells reached 70% confluence, medium was changed to MEM with 2% FBS and serial diluted cyclic peptide-tri-GalNAc with final concentration of 50, 25, 12.5, 6.25, 3.125 and 1.5625 μM were treated. After 24 h of treatment, 10 μL of CCK-8 solution was added to each well, and incubated for 1˜4 h at 37° C. The absorbance at 450 nm was measured by microplate reader (Thermo scientific, Multiskan sky, MA, USA). The survival ratio of cells treated with ID013, ID023 and commercialized tri-GalNAC are from 97˜100%.

Series [2] is described as follows: Stability assay in human plasma (UPLC-FLR). It is filed as in vitro ADME. As to conditions: 90% human plasma; for stability in human plasma: within 6 h; for remaining at 72 h, 20 nM: human plasma (90%), 37° C., read-out: remaining amount after 72 h of incubation. On the procedure:
FAM-labeled tri-GalNAc ligands were prepared with sterile water with final concentration of 200 nM. […] At the end of incubations, each mixture was added 300 μl of methanol to quench the reaction. The quenched samples were centrifuged at 20,000×g for 5 min and the supernatant was further filtered with 0.45 μm filters (Merck Millipore) to remove debris. The filtered samples were measured by UPLC-FLR detector (Waters, MA, USA).
5-FAM-CPMB-0013 (ID013), 5-FAM-CPMB-0023 (ID023) and commercialized tri-GalNAC were incubated with 90% of human plasma for different time points. The amount of each ligand was analyzed and quantified by UPLC system.

The target in series [3] is T1, asialoglycoprotein receptor (ASGPR) on HepG2 cells (human, UniProt P07306 1-291; P07307 1-311).
T1 construct: whole, on cells; also called ASGPR receptor on liver cells
T1 sequence (looked up) 1: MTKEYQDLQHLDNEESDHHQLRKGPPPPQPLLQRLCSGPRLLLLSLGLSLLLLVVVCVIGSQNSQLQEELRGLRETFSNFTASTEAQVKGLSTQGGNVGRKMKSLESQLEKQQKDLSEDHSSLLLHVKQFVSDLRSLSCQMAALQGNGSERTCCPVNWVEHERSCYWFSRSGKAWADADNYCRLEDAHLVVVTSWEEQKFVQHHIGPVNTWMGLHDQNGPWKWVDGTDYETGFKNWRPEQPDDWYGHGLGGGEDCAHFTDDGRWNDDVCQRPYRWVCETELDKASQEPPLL
T1 sequence (looked up) 2: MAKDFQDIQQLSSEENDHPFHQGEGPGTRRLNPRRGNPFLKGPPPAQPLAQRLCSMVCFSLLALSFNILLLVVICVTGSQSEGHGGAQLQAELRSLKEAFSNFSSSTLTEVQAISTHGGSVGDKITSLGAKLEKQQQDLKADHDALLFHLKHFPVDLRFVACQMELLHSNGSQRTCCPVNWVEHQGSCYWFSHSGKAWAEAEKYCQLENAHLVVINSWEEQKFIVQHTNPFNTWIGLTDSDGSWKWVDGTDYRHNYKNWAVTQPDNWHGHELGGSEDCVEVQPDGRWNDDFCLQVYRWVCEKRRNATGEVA
The experiment in a line: flow cytometry titration on HepG2 cells (% FAM-positive cells, 1.6-200 nM, 24 h). On the procedure: Cells were seeded in 24-well plates with a density of 1.5×10⁵ cells per well and incubated under 37° C., 5% CO₂. After 18 h of incubation, media were replaced to MEM with 2% FBS and FAM-labeled ligands were added with final concentrations of 1.6, 8, 40 or 200 nM. After 24 h of incubation, cells were washed twice with 1×PBS and analyzed by LSRFortessa (BD Biosciences, NJ, USA). The binding efficiency was evaluated by the proportion of FAM positive cells.
HepG2 cell was treated by 14 cyclic peptide-tri-GalNAc ligand variants with serial diluted concentration of 1.6, 8, 40 or 200 nM. Commercialized tri-GalNAc used in Givosirna was used as positive control and cyclic peptide w/o tri-GalNAc was negative control. Among 14 variants, 5-FAM-CPMB-0013 (ID013), 5-FAM-CPMB-0023 (ID023) and 5-FAM-CPMB-0035 (ID035) had relatively higher binding ability as compared to others and commercialized tri-GalNAc. Equilibrium dissociation constant (kd) for 5-FAM-CPMB-0013 (ID013), 5-FAM-CPMB-0023 (ID023), 5-FAM-CPMB-0035 (ID035) and commercialized tri-GalNAC were 7.0, 8.6, 5.7 and 18 nM, respectively.

For series [4], the target named is asialoglycoprotein receptor (ASGPR) on HepG2 cells (human) (UniProt P07306). The experiment in a line: flow cytometry, % FAM-positive HepG2 cells after 24 h with 8 nM ligand. For orientation: In flow cytometry, cells or beads pass a laser one at a time.
For series [5] the target is unchanged. The experiment in a line: flow cytometry, % FAM-positive HepG2 cells after 24 h with 40 nM ligand.
Series [6] shares this target. The experiment in a line: flow cytometry, % FAM-positive HepG2 cells after 24 h with 200 nM ligand.
Series [7] has the same target. The experiment in a line: flow cytometry, % FAM-positive HepG2 cells after 24 h with 1.6 nM ligand.
Series [8] has the same target. The experiment in a line: flow cytometry titration on HepG2 cells (% FAM-positive cells, 1.6-200 nM, 24 h).
The target is the same in series [9]. The experiment in a line: flow cytometry, % FAM-positive HepG2 cells after 24 h with 1.6 nM ligand; negative control.
Series [10] has the same target. The experiment in a line: flow cytometry, % FAM-positive HepG2 cells after 24 h with 200 nM ligand; negative control.
Series [11] shares this target. The experiment in a line: flow cytometry, % FAM-positive HepG2 cells after 24 h with 8 nM ligand; negative control.
Series [12] has the same target. The experiment in a line: flow cytometry, % FAM-positive HepG2 cells after 24 h with 40 nM ligand; negative control.

Square brackets hold non-standard residues; d marks the D form. Side chains are listed from the residue outwards. * marks the point of attachment. Gal‑1 = GalNAc linker: 5-(GalNAc-oxy)pentanoic acid (3-acetamido-4,5-diacetoxy-6-(acetoxymethyl)tetrahydropyran-2-yl-oxy)pentanoic acid; Gal‑3 = GalNAc linker: 4-(GalNAc-oxy)butanoic acid (3-acetamido-4,5-diacetoxy-6-(acetoxymethyl)tetrahydropyran-2-yl-oxy)butanoic acid; 5FAM = O=C1OC2(c3ccc(O)cc3Oc3cc(O)ccc32)c2ccc(C(=O)*)cc21; Linker2 = 6-aminohexyl amide linker; GalNAc = N-acetylgalactosamine

For orientation: fraction remaining means the share of the starting amount still present when the sample was taken. Consider `CC(=O)N[C@H]1[C@H](OCCCC(=O)NCCCC[C@@H]2NC(=O)CNC(=O)[C@H](CCCCNC(=O)CCCO[C@@H]3O[C@H](CO)[C@H](O)[C@H](O)[C@H]3NC(C)=O)NC(=O)[C@H](CCC(=O)NCCCCCCNC(=O)c3ccc4c(c3)C(=O)OC43c4ccc(O)cc4Oc4cc(O)ccc43)NC(=O)[C@H](CCCCNC(=O)CCCO[C@@H]3O[C@H](CO)[C@H](O)[C@H](O)[C@H]3NC(C)=O)NC(=O)CNC2=O)O[C@H](CO)[C@H](O)[C@@H]1O` [5-FAM-CPMB-0013], for which the viability at 24 h in series [1] lay within 97 to 100%. Also, in series [2], the “stability in human plasma” value is “highly stable” and the amount remaining at 72 h, 20 nM amounted to 92.7%.
`CC(=O)N[C@H]1[C@H](OCCCC(=O)NCCCC[C@H]2NC(=O)CNC(=O)[C@@H](CCCCNC(=O)CCCO[C@@H]3O[C@H](CO)[C@H](O)[C@H](O)[C@H]3NC(C)=O)NC(=O)[C@@H](CCC(=O)NCCCCCCNC(=O)c3ccc4c(c3)C(=O)OC43c4ccc(O)cc4Oc4cc(O)ccc43)NC(=O)[C@@H](CCCCNC(=O)CCCO[C@@H]3O[C@H](CO)[C@H](O)[C@H](O)[C@H]3NC(C)=O)NC(=O)CNC2=O)O[C@H](CO)[C@H](O)[C@@H]1O` [5-FAM-CPMB-0023]: the viability at 24 h in series [1] was 97 to 100%. For the same molecule, in series [2], the “stability in human plasma” value is on record as “highly stable” and the amount remaining at 72 h, 20 nM amounted to 85.8%.

B1: 5-FAM-CPMB-0013 (peptide)
peptide: KEKGKG
modifications: head-to-tail cyclic; each Lys side chain carries GalNAc via linker Gal-3; Glu side chain carries Linker2 (6-aminohexyl amide) with 5-FAM
notes: also called ID013
The Kd is the constant that tells how readily two partners part at equilibrium. A high value points to lower affinity. Regarding B1, binding in series [3] was characterised by a dissociation constant (Kd) of 7 nM. That is a single-digit nanomolar value.
Regarding cyclo(K([Gal‑1-GalNAc])[dE]([Linker2-5FAM])K([Gal‑1-GalNAc])GK([Gal‑1-GalNAc])G) [5-FAM-CPMB-0031], the Efficiency (%) (proportion of FAM positive cells) was found to be 44.2% in [4], 87.8% in [5], 98.6% in series [6] and 6% in series [7].
As for cyclo(K([Gal‑3-GalNAc])[dE]([Linker2-5FAM])K([Gal‑3-GalNAc])GK([Gal‑3-GalNAc])G) [5-FAM-CPMB-0033], the Efficiency (%) (proportion of FAM positive cells) was 34.5% in [4], 82.9% in series [5], 98.2% in series [6] and 5.3% in series [7].

B2: 5-FAM-CPMB-0034 (peptide)
peptide: KEKGKG
modifications: head-to-tail cyclic; D-Glu; each Lys side chain carries GalNAc via linker Gal-4; D-Glu side chain carries Linker2 with 5-FAM
For the molecule B2, the Efficiency (%) (proportion of FAM positive cells) in series [4] was determined as 25.6%; in [5], 73.6%; in series [6] it was 95.6%; in [7], 2%.
As to cyclo([dK]([Gal‑3-GalNAc])[dE]([Linker2-5FAM])[dK]([Gal‑3-GalNAc])G[dK]([Gal‑3-GalNAc])G) [5-FAM-CPMB-0023], the Efficiency (%) (proportion of FAM positive cells) is 47.2% in series [4], 91.2% in series [5], 99.2% in [6] and 6.2% in series [7]. In series [8], this molecule came in with a Kd of 8.6 nM.

B3: 5-FAM-CPMB-0031-Ac (negative control) (peptide)
peptide: cyclo(K[dE]([Linker2-5FAM])KGKG)
modifications: also: Lys side chains: Gal-1 with suffix -Ac per table, 'w/o tri-GalNAc' per text
With B3, the Efficiency (%) (proportion of FAM positive cells) was found to be 0.1% in [9], 0.4% in series [10], 0.1% in series [11] and 0.2% in series [12].

B4: 5-FAM-CPMB-0035 (peptide)
peptide: KEKGKG
modifications: head-to-tail cyclic; D-Glu; each Lys side chain carries GalNAc via linker Gal-5; D-Glu side chain carries Linker2 with 5-FAM
On to B4, for which the Efficiency (%) (proportion of FAM positive cells) in series [4] is 63.2%; in [5] it was 95.2%; in series [6] it was 99.5%; in series [7] it was 11.1%. Also, the Kd in series [8] stood at 5.7 nM.

These data come from patent publication US20240218023A1, “CYCLIC PEPTIDE-N-ACETYLGALACTOSAMINE (GALNAC) CONJUGATES FOR DRUG DELIVERY TO LIVER CELLS” (MICROBIO (SHANGHAI) CO., LTD., priority 2021, published 2024).
